Experimental data from JP2018153172A (dated 2018).

B1: ヒト化抗体A AH2−AL2 (antibody, V domains shown)
VH: QVQLQQPGAELVQPGTSVRLSCKASGYTFTDYNMDWVKQRPGQGLEWIGDINSHSGGIIYNQKFKDKATLTVDKSSSTAYMQLSSLTSEDSAVYYCTRTYYVYGHFFDYWGQGTLVTVSA
VL: DIQMTQSPSSLSASVGDRVTITCNVSSSVTSMYWYQQKQGKSPQLLVYLTSNLASGVPSRFSGSGSGTQFSLKINNLQPEDFGSYYCQQWSTNPLTFGAGTKLDLK
notes: VH on human IgG1 constant region (pFUSEss-CHIg-hG1), VL on human kappa constant region (pFUSE2ss-CLIg-hk); also called AH2-AL2
B2: ヒト化抗体A AH2−AL6 (antibody, V domains shown)
VH: QVQLQQPGAELVQPGTSVRLSCKASGYTFTDYNMDWVKQRPGQGLEWIGDINSHSGGIIYNQKFKDKATLTVDKSSSTAYMQLSSLTSEDSAVYYCTRTYYVYGHFFDYWGQGTLVTVSA
VL: EIVLTQSPATLSLSPGERATLSCNVSSSVTSMYWYQQKPGQAPRLLIYLTSNLASGIPDRFSGSGSGTDFTLTISRLEPEDFAVYYCQQWSTNPLTFGQGTKVEIK
notes: VH on human IgG1 constant region (pFUSEss-CHIg-hG1), VL on human kappa constant region (pFUSE2ss-CLIg-hk); also called AH2-AL6
B3: ヒト化抗体A AH4−AL7 (antibody, V domains shown)
VH: QVQLVQSGAEVKKPGSSVKVSCKASGYTFTDYNMDWVRQAPGQGLEWMGDINSHSGGIIYNQKFKDRVTITADESTSTAYMELSSLRSEDTAVYYCARTYYVYGHFFDYWGQGTLVTVSS
VL: DIQMTQSPSTLSASIGDRVTITCNVSSSVTSMYWFQQRPGQAPKVLIYLTSNLASGVPSRFSGSGSGTDFTFTISSLQPEDIATYYCQQWSTNPLTFGGGTKVDIK
notes: VH on human IgG1 constant region (pFUSEss-CHIg-hG1), VL on human kappa constant region (pFUSE2ss-CLIg-hk); also called AH4-AL7
B4: ヒト化抗体A AH3−AL7 (antibody, V domains shown)
VH: QVQLVQSGAEVKKPGASVKVSCKASGYTFTDYNMDWVRQAPGQGLEWIGDINSHSGGIIYNQKFKDKATMTVDTSTNTAYMELSSLRSEDTAVYYCARTYYVYGHFFDYWGQGTLVTVSS
VL: DIQMTQSPSTLSASIGDRVTITCNVSSSVTSMYWFQQRPGQAPKVLIYLTSNLASGVPSRFSGSGSGTDFTFTISSLQPEDIATYYCQQWSTNPLTFGGGTKVDIK
notes: VH on human IgG1 constant region (pFUSEss-CHIg-hG1), VL on human kappa constant region (pFUSE2ss-CLIg-hk); also called AH3-AL7
B5: ヒト化抗体A AH5−AL7 (antibody, V domains shown)
VH: EVQLVQSGPELKKPGASVKVSCKASGYTFTDYNMDWVKQRPGQGLEWIGDINSHSGGIIYNQKFKDRVTITADESTSTAYMELTSLTSEDTAVYYCARTYYVYGHFFDYWGQGTLVSVSS
VL: DIQMTQSPSTLSASIGDRVTITCNVSSSVTSMYWFQQRPGQAPKVLIYLTSNLASGVPSRFSGSGSGTDFTFTISSLQPEDIATYYCQQWSTNPLTFGGGTKVDIK
notes: VH on human IgG1 constant region (pFUSEss-CHIg-hG1), VL on human kappa constant region (pFUSE2ss-CLIg-hk); also called AH5-AL7
B6: ヒト化抗体A AH8−AL7 (antibody, V domains shown)
VH: EVQLVQSGAEVKKPGASVKVSCKASGYTFTDYNMDWVRQAPGKGLEWVGDINSHSGGIIYNQKFKDRVTITADRSTSTVYMELSGLRSEDTAVYYCARTYYVYGHFFDYWGKGTLVTVSS
VL: DIQMTQSPSTLSASIGDRVTITCNVSSSVTSMYWFQQRPGQAPKVLIYLTSNLASGVPSRFSGSGSGTDFTFTISSLQPEDIATYYCQQWSTNPLTFGGGTKVDIK
notes: VH on human IgG1 constant region (pFUSEss-CHIg-hG1), VL on human kappa constant region (pFUSE2ss-CLIg-hk); also called AH8-AL7
B7: ヒト化抗体A AH6−AL7 (antibody, V domains shown)
VH: QVQLVQSGAEVKKPGASVKVSCKASGYTFTDYNMDWVRQAPGQGLEWIGDINSHSGGIIYNQKFKDRVTITADESTSTAYMELTSLTSEDTAVYYCARTYYVYGHFFDYWGQGTTVTVSS
VL: DIQMTQSPSTLSASIGDRVTITCNVSSSVTSMYWFQQRPGQAPKVLIYLTSNLASGVPSRFSGSGSGTDFTFTISSLQPEDIATYYCQQWSTNPLTFGGGTKVDIK
notes: VH on human IgG1 constant region (pFUSEss-CHIg-hG1), VL on human kappa constant region (pFUSE2ss-CLIg-hk); also called AH6-AL7
B8: ヒト化抗体A AH1−AL7 (antibody, V domains shown)
VH: EVQLVQSGAEVKKPGSSVKVSCKASGYTFTDYNMDWVRQAPGQGLEWIGDINSHSGGIIYNQKFKDKATITADESTNTAYMELSSLRSEDTAVYYCARTYYVYGHFFDYWGQGTTLTVSS
VL: DIQMTQSPSTLSASIGDRVTITCNVSSSVTSMYWFQQRPGQAPKVLIYLTSNLASGVPSRFSGSGSGTDFTFTISSLQPEDIATYYCQQWSTNPLTFGGGTKVDIK
notes: VH on human IgG1 constant region (pFUSEss-CHIg-hG1), VL on human kappa constant region (pFUSE2ss-CLIg-hk); also called AH1-AL7

Target: T1, 可溶性ヒトgp130受容体 (soluble human gp130 receptor, extracellular region of SEQ ID NO 1 with six histidines) (human, UniProt P40189 23-619)
T1 construct: Secreted from CHO DG44 cells and purified on HisTrap; no cleavage site is stated; also called 可溶性ヒトgp130受容体タンパク質; ヒト可溶性gp130受容体
T1 sequence: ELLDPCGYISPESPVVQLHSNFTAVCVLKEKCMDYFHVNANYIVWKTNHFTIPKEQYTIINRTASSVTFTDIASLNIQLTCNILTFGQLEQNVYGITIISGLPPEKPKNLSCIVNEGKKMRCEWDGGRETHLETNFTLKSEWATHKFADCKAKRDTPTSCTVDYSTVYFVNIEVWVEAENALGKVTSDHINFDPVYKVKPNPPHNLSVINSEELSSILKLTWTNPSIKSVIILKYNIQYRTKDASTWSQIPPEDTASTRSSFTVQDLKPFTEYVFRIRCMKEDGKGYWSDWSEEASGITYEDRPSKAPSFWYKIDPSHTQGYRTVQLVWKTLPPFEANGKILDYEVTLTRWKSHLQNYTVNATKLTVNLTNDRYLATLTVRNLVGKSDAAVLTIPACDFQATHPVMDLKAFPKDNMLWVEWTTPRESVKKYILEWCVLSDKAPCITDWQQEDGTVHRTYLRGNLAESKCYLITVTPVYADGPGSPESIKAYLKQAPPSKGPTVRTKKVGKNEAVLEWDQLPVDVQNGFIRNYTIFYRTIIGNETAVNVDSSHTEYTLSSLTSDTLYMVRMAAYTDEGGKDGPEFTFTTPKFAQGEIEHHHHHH
Assay: ELISA, immobilised soluble human gp130, COS1 supernatant, anti-human antibody-HRP

Binding result, binds:
B1
B2
B3
B4
B5
B6
B7
B8
